Measurements: the supplement of paper PMC9112550, “Optimization of the antimicrobial peptide Bac7 by deep mutational scanning” (BMC Biology, 2022)

Test system: Escherichia coli TOP10
Assay: shrunken log2 fold change of peptide-encoding DNA abundance (4.5 h post-induction vs induction); higher = less antimicrobial activity (less host growth inhibition)
Conditions: time post-induction: 4.5 h; library: site-saturation at positions 5, 18, 19, 20
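Further: peptides expressed intracellularly from a pBAD plasmid library in pooled LB shake-flask culture, induced with 0.3% L-arabinose, DNA abundance read by NGS, three biological replicates, DESeq2 with apeglm shrinkage.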

Sequence | shrunken log2 fold change
RRIRNRPPRLPRPRPRPKWRPRP | 0.792
RRIRSRPPRLPRPRPRPDFMPRP | -0.159
RRIRPRPPRLPRPRPRPPMSPRP | -0.0803
RRIRTRPPRLPRPRPRPMAAPRP | 0.0975
RRIRTRPPRLPRPRPRPGLWPRP | 0.521
RRIRQRPPRLPRPRPRPGAHPRP | 0.179
RRIRPRPPRLPRPRPRPNLAPRP | 0.294
RRIRKRPPRLPRPRPRPKSMPRP | 0.375
RRIRGRPPRLPRPRPRPRAEPRP | 1.01
RRIRFRPPRLPRPRPRPDTSPRP | -0.985
RRIRHRPPRLPRPRPRPQHVPRP | -0.048
RRIRCRPPRLPRPRPRPGKQPRP | -0.106
RRIRSRPPRLPRPRPRPCHWPRP | -0.0782
RRIRQRPPRLPRPRPRPENYPRP | 0.309
RRIRMRPPRLPRPRPRPYLYPRP | -0.0828
RRIRVRPPRLPRPRPRPCHYPRP | -0.0563
RRIRFRPPRLPRPRPRPYLRPRP | -0.138
RRIRHRPPRLPRPRPRPNCAPRP | 0.0721
RRIRKRPPRLPRPRPRPPAYPRP | 0.417
RRIRNRPPRLPRPRPRPAIHPRP | 0.0529
RRIRRRPPRLPRPRPRPIYNPRP | -0.246
RRIRERPPRLPRPRPRPDKHPRP | 0.236
RRIRLRPPRLPRPRPRPYKQPRP | -0.0145
RRIRGRPPRLPRPRPRPLTAPRP | 0.998
RRIRRRPPRLPRPRPRPRREPRP | 0.435

Sequence | shrunken log2 fold change
RRIRGRPPRLPRPRPRPRVRPRP | 0.789
RRIRPRPPRLPRPRPRPWPVPRP | 0.317
RRIRERPPRLPRPRPRPADDPRP | 0.000221
RRIRERPPRLPRPRPRPHTQPRP | -0.362
RRIRTRPPRLPRPRPRPAAKPRP | 0.217
RRIRNRPPRLPRPRPRPSHDPRP | -0.516
RRIRVRPPRLPRPRPRPEWNPRP | -0.272
RRIRRRPPRLPRPRPRPTTVPRP | 0.792
RRIRTRPPRLPRPRPRPLRTPRP | 0.26
RRIRPRPPRLPRPRPRPDDTPRP | -0.085
RRIRCRPPRLPRPRPRPARLPRP | 0.395
RRIRMRPPRLPRPRPRPAIDPRP | 0.718
RRIRDRPPRLPRPRPRPYHIPRP | -0.107
RRIRVRPPRLPRPRPRPMRIPRP | 0.218
RRIRLRPPRLPRPRPRPVTSPRP | -0.0743
RRIRMRPPRLPRPRPRPDILPRP | 1.45
RRIRTRPPRLPRPRPRPFYWPRP | -0.348
RRIRWRPPRLPRPRPRPVAKPRP | 0.404
RRIRERPPRLPRPRPRPCIVPRP | -0.427
RRIRYRPPRLPRPRPRPPYKPRP | -0.23
RRIRNRPPRLPRPRPRPAFPPRP | -0.138
RRIRPRPPRLPRPRPRPKFDPRP | 0.163
RRIRPRPPRLPRPRPRPCTQPRP | -0.106
RRIRERPPRLPRPRPRPWPHPRP | -0.0947
RRIRERPPRLPRPRPRPFCGPRP | -0.058

Sequence | shrunken log2 fold change
RRIRCRPPRLPRPRPRPHDLPRP | -0.46
RRIRVRPPRLPRPRPRPITVPRP | -1.15
RRIRCRPPRLPRPRPRPDMSPRP | -0.329
RRIRLRPPRLPRPRPRPHHDPRP | -0.694
RRIRMRPPRLPRPRPRPWYPPRP | -0.786
RRIRWRPPRLPRPRPRPVADPRP | 1.07
RRIRNRPPRLPRPRPRPEGMPRP | 0.225
RRIRARPPRLPRPRPRPLMTPRP | 0.474
RRIRYRPPRLPRPRPRPHLQPRP | -0.388
RRIRNRPPRLPRPRPRPGNLPRP | -0.186
RRIRIRPPRLPRPRPRPKRLPRP | 0.181
RRIRRRPPRLPRPRPRPTNPPRP | 0.122
RRIRWRPPRLPRPRPRPWTTPRP | -0.148
RRIRQRPPRLPRPRPRPNPAPRP | 0.17
RRIRKRPPRLPRPRPRPMPWPRP | 0.321
RRIRDRPPRLPRPRPRPAVAPRP | 0.309
RRIRKRPPRLPRPRPRPVARPRP | 0.397
RRIRRRPPRLPRPRPRPYADPRP | -0.0932
RRIRWRPPRLPRPRPRPHQMPRP | -0.34
RRIRWRPPRLPRPRPRPEVCPRP | 0.000572
RRIRLRPPRLPRPRPRPPCHPRP | -0.178
RRIRRRPPRLPRPRPRPPQSPRP | 0.846
RRIRWRPPRLPRPRPRPHGEPRP | 0.135
RRIRMRPPRLPRPRPRPCAEPRP | 2.31
RRIRKRPPRLPRPRPRPHHNPRP | -0.421

Sequence | shrunken log2 fold change
RRIRERPPRLPRPRPRPMFFPRP | -0.0867
RRIRRRPPRLPRPRPRPNCSPRP | 0.198
RRIRGRPPRLPRPRPRPMNQPRP | 0.0945
RRIRWRPPRLPRPRPRPRNLPRP | 0.0777
RRIRYRPPRLPRPRPRPQKVPRP | -0.209
RRIRQRPPRLPRPRPRPIPKPRP | -0.0574
RRIRTRPPRLPRPRPRPMEVPRP | 0.117
RRIRKRPPRLPRPRPRPTFCPRP | 0.193
RRIRPRPPRLPRPRPRPYWQPRP | 0.0184
RRIRMRPPRLPRPRPRPLRYPRP | 0.856
RRIRDRPPRLPRPRPRPAATPRP | 1.9
RRIRMRPPRLPRPRPRPAVLPRP | 0.0985
RRIRVRPPRLPRPRPRPSWQPRP | -0.251
RRIRQRPPRLPRPRPRPESAPRP | 0.208
RRIRPRPPRLPRPRPRPYYRPRP | -0.178
RRIRSRPPRLPRPRPRPAATPRP | 0.67
RRIRSRPPRLPRPRPRPKFPPRP | 0.0385
RRIRPRPPRLPRPRPRPPVEPRP | 0.0793
RRIRARPPRLPRPRPRPGDAPRP | 0.711
RRIRLRPPRLPRPRPRPYWMPRP | -0.257
RRIRIRPPRLPRPRPRPAHTPRP | -0.588
RRIRCRPPRLPRPRPRPQNAPRP | -0.372
RRIRCRPPRLPRPRPRPFVFPRP | -0.26
RRIRFRPPRLPRPRPRPWHYPRP | -0.146
RRIRYRPPRLPRPRPRPYYAPRP | -0.634

Sequence | shrunken log2 fold change
RRIRFRPPRLPRPRPRPPQSPRP | 0.334
RRIRRRPPRLPRPRPRPTFFPRP | 0.722
RRIRHRPPRLPRPRPRPGCEPRP | 0.103
RRIRIRPPRLPRPRPRPLRQPRP | 0.335
RRIRHRPPRLPRPRPRPLYGPRP | -0.214
RRIRFRPPRLPRPRPRPLYLPRP | -0.826
RRIRRRPPRLPRPRPRPTKFPRP | 0.0982
RRIRSRPPRLPRPRPRPITAPRP | -0.0161
RRIRNRPPRLPRPRPRPSNLPRP | -0.457
RRIRPRPPRLPRPRPRPYGVPRP | -0.157
RRIRIRPPRLPRPRPRPYAWPRP | -0.402
RRIRVRPPRLPRPRPRPILMPRP | -0.231
RRIRSRPPRLPRPRPRPSGGPRP | -0.0437
RRIRDRPPRLPRPRPRPMFKPRP | -0.767
RRIRDRPPRLPRPRPRPANAPRP | -0.00277
RRIRCRPPRLPRPRPRPCCMPRP | -0.392
RRIRHRPPRLPRPRPRPKRCPRP | -0.0661
RRIRQRPPRLPRPRPRPHARPRP | -0.00608
RRIRVRPPRLPRPRPRPICHPRP | -0.224
RRIRIRPPRLPRPRPRPFRLPRP | -0.223
RRIRMRPPRLPRPRPRPDCCPRP | 2.61
RRIRRRPPRLPRPRPRPMRAPRP | 0.905
RRIRGRPPRLPRPRPRPFSDPRP | 0.165
RRIRIRPPRLPRPRPRPLQAPRP | 0.0546
RRIRYRPPRLPRPRPRPWGPPRP | -0.206

Sequence | shrunken log2 fold change
RRIRGRPPRLPRPRPRPMWKPRP | 0.0121
RRIRHRPPRLPRPRPRPYNCPRP | -0.00726
RRIRCRPPRLPRPRPRPLDYPRP | -0.75
RRIRIRPPRLPRPRPRPKCKPRP | -1.21
RRIRQRPPRLPRPRPRPKFCPRP | -0.0186
RRIRNRPPRLPRPRPRPVLKPRP | 0.0485
RRIRNRPPRLPRPRPRPTHCPRP | 0.085
RRIRYRPPRLPRPRPRPRDWPRP | 0.0703
RRIRSRPPRLPRPRPRPQSRPRP | 0.0912
RRIRERPPRLPRPRPRPAIYPRP | -0.051
RRIRKRPPRLPRPRPRPQQQPRP | -0.0131
RRIRERPPRLPRPRPRPWRSPRP | 0.196
RRIRARPPRLPRPRPRPVTAPRP | 0.654
RRIRPRPPRLPRPRPRPTYYPRP | -0.636
RRIRARPPRLPRPRPRPNEHPRP | 0.0215
RRIRWRPPRLPRPRPRPIIEPRP | -0.273
RRIRMRPPRLPRPRPRPLHTPRP | 2.66
RRIRPRPPRLPRPRPRPIRVPRP | -0.262
RRIRCRPPRLPRPRPRPKKAPRP | -0.235
RRIRDRPPRLPRPRPRPLAEPRP | 1.17
RRIRERPPRLPRPRPRPAARPRP | 0.226
RRIRTRPPRLPRPRPRPNESPRP | -0.379
RRIRSRPPRLPRPRPRPVMAPRP | 0.304
RRIRCRPPRLPRPRPRPPERPRP | 0.576
RRIRQRPPRLPRPRPRPAVVPRP | 0.242
